The target of this test is FGFR4 ectodomain (Homo sapiens, UniProt P22455). Put plainly: AVEXIS normalised luminescence.

B1: 82 (protein)
chain: GLCKPCTLENHYCEGGLESDITFNNKLIKGKFHTLPKKCPRGLGIPNIIKERNSINNCLCIHGKVQRTTENKNVECFPCPPNTFKENEYDNSCSGACPPFSTTFVGSSYENQCFCKNNYYLVSTDDENDANGNSINNNKNIYNNNNIYNNNNNNNNNNNNNFNNKADVKKKSCKICPIGAICNRGFNIYIYLKLLNDRSYNNINVIDHETPFPKYGYYAVYREKTNPAKSWDTLDDSAILNYVYPYHKLLLFIQKNIQKGNYFFLEKGNKFFLNDDFVEKMNEKSKYEEENANKFVTKSEIIHNVNTNNLKGKHNTLNNNNNNNNINKASSFLNQNNYNNDIIQLSSYENNPFKNLASTSEVSSNNNVISFIQNNDKTNNAANDNNIENLVDIFNKYVQEAKELQIQNRKFERIPDIHPCTIPNRCLGTLINLCSDGSTGYQCNNCAKNYDMSYFKSKCKKCQNLFYE
modifications: bait human Fc-tagged dimer
Molecule B1 had a binding score of 1.25.

B2: 36 (protein)
chain: QDEKSVKNICVCDFTDKLNFLPLEKTKILCELKPQYGEDIKIIANKEYEINCMNNAKVFCPLKDTFINNANIKLYSPKLHFEIKDITHKGKNAALYYLKIDEEASDIFFSCSIKPKQVSGLLEGEVRVNLKKHINEEYSIFNEEEDVHVCDFSKGNLDITPSAGFYLKNSRNVACIYRVIPNKLFLIKLPKLDIVTEKLLPSIVNCLSEFSFINFALKHVQEGDNYISFNVIFGEFKKHFNLACSLDLSDFQQEPCNLGKTANIAFIFSK
modifications: bait human Fc-tagged dimer
For the molecule B2, the binding score is 0.937.

B3: 88 (protein)
chain: FENAIKKTKNQENNLALLPIKSTEEEKDDIKNGKDIKKEIDNDKENIKTNNAKDHSTYIKSYLNTNVNDGLKYLFIPSHNSFIKKYSVFNQINDGMLLNEKNDVKNNEDYKNVDYKNVNFLQYHFKELSNYNIANSIDILQEKEGHLDFVIIPHYTFLDYYKHLSYNSIYHKSSTYGKCIAVDAFIKKINEAYDKVKSKCNDIKNDLIATIKKLEHPYDINNKNDDSYRYDISEEIDDKSEETDDETEEVEDSIQDTDSNHAPSNKKKNDLMNRAFKKMMDEYNTKKKKLIKCIKNHENDFNKICMDMKNYGTNLFEQLSCYNNNFCNTNGIRYHYDEYIHKLILSVKSKNLNKDLSDMTNILQQSELLLTNLNKKMGSYIYIDTIKFIHKEMKHIFNRIEYHTKIINDKTKIIQDKIKLNIWRTFQKDELLKRILDMSNEYSLFITSDHLRQMLYNTFYSKEKHLNNIFHHLIYVLQMKFNDVPIKMEYFQTYKKNKPLTQ
modifications: bait human Fc-tagged dimer
With B3, the binding score was 1.03.

B4: 20 (protein)
chain: DIIIVDSNKDIQGFDPNSVLNLAENVFNIFLDTKTNNADIKTVYSSIFSNSKVTIDGTCSSMKELIKGRSLKYLDELGTEEYVNSDDVFNFAIFVYTVNGQPDIIQQVYKKHPNYISYIITCKESELFDNIEDAKDNKNVFHTNP
modifications: bait human Fc-tagged dimer
B4 displayed a binding score of 1.16.

B5: 11 (protein)
chain: LKVPIENAPFVFNKKENDIKYFLDKETPDDFLSNNAYSLDITLENFPNPFFHPSLCNRYGFKFSYICDPNKILSRNIADQIEEILNYQRRNSKHFCVDKEVPYVLGVALINKLPYGISADTFASQIFEYWKLSNKDCNDGVLLFFVKEDTHFILKWKKGAQSIINFRTATSMNKAFNQYLRKYSLEYSILSAVKLTSQYLTEEIIPPTQTAQK
modifications: bait human Fc-tagged dimer
On to B5, for which the binding score was determined as 1.58.

B6: 70 (protein)
chain: NTYIYLKQDSFVFSNEFPTVEEKNQALGENYEIVTLTTKDNHKFTCWYIKTKDSENKPIMLYFQGNGGYLEKYMNLFNLIIERVDVNIFSCSNRGCGSNIAKPSEEYFYKDAHVYIEYVKTKNPKHLFIFGSSMGAAVAIDTALKQHDHISGLIVQNAFTSLKELSRYSHPFLNYFLFDYDMIIRSKMDNEAKIKNIAVPTLFTLSEMDEKVPTSHTRTLFQLSASTNKQLYLSKGGTHPNILKNDDGSYHKAMKKFIVTAISIREKNIQKAVERNPNTPN
modifications: bait human Fc-tagged dimer
In turn, B6 yielded a binding score of 0.951.

Source of the values: publication PMC11098746 (2024).
